Where only a bound is given, the exact number is not on record here.

What is called Kd is the equilibrium constant for the complex coming apart.

The target of data set [1] is T1, hnRNP A1 RRM2 R140A (UniProt P09651 95-196, R140A). Put plainly: ITC; 10 mM sodium phosphate pH 6.5, 10 mM 2-mercaptoethanol, no added salt, 30 C; RNA 5-10 uM in the cell; 1:1 fit. Conditions: none in PDB 5MPL. In general terms: Isothermal titration calorimetry measures the heat released or taken up as one component is titrated into another.
T1 sequence (P09651 95-196 R140A): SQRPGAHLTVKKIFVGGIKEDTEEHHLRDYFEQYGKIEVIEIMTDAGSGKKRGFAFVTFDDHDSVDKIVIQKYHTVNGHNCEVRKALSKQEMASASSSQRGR
The target in data set [2] is T2, hnRNP A1 RRM2 (UniProt P09651 95-196). Put plainly: ITC; ITC: 10 mM NaPi pH 6.5, 10 mM 2-mercaptoethanol, 30 C, protein titrated into RNA; NMR: 10 mM NaPi pH 6.5, 1 mM DTT (303 K stated for UP1-R140A:ISS-N1-u25g). Conditions: protein: recombinant; single strand.
T2 sequence (P09651 95-196): as the sequence (P09651 95-196 R140A) above, with A46R counted along it
A further data set has as its target hnRNP A1 RRM2 E176Q (UniProt P09651 95-196, E176Q). The description is as above. The settings on record: protein: recombinant; single strand.
The target of data set [3] is T1, hnRNP A1 RRM2 R140A. Described as above. The settings on record: protein: recombinant; single strand.
The target of another data set is hnRNP A1 RRM1 F23A (UniProt P09651 2-97, F23A). The data set is described as above. Conditions: protein: recombinant; single strand.
Chain of hnRNP A1 RRM1 F23A (P09651 2-97 F23A): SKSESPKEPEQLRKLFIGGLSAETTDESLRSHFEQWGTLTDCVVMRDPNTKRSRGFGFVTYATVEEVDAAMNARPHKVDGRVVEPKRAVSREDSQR
The target of data set [4] is T3, hnRNP A1 RRM1 (UniProt P09651 2-97). Described as above. The settings on record: protein: recombinant; single strand.
T3 sequence (P09651 2-97): as the sequence (P09651 2-97 F23A) above, with A22F counted along it
Data set [5] deals with T3, hnRNP A1 RRM1. Put plainly: NMR titration; intermediate exchange; ITC: 10 mM NaPi pH 6.5, 10 mM 2-mercaptoethanol, 30 C, protein titrated into RNA; NMR: 10 mM NaPi pH 6.5, 1 mM DTT (303 K stated for UP1-R140A:ISS-N1-u25g). The settings on record: protein: recombinant; single strand.
For data set [6], the target named is hnRNP A1 UP1 R1r2 (Homo sapiens, UniProt P09651 2-196, F108A;F150A). Briefly: ITC; 10 mM sodium phosphate pH 6.5, 10 mM 2-mercaptoethanol, no added salt, 30 C; RNA 5-10 uM in the cell; 1:1 fit. The settings on record: extra N-terminal Gly-Gly in PDB 2LYV (left out).
Chain of hnRNP A1 UP1 R1r2 (P09651 2-196 F108A/F150A): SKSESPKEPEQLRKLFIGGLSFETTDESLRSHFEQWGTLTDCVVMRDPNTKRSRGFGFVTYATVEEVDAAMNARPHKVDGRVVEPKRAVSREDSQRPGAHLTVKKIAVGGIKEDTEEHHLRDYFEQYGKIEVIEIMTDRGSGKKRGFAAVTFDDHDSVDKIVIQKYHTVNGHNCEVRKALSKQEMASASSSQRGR
Data set [7] concerns the target T3, hnRNP A1 RRM1. The data set is described as above. The settings on record: one extra N-terminal Ala in PDB 5MPG (left out).
The target of data set [8] is hnRNP A1 UP1 r1R2 (Homo sapiens, UniProt P09651 2-196, F17A;F59A). The description is as above. The settings on record: extra N-terminal Gly-Gly in PDB 2LYV (left out).
Chain of hnRNP A1 UP1 r1R2 (P09651 2-196 F17A/F59A): as the sequence (P09651 2-196 F108A/F150A) above, with F16A, F58A, A107F, A149F counted along it
The target in data set [9] is T1, hnRNP A1 RRM2 R140A. Put plainly: ITC; range, no saturation; ITC: 10 mM NaPi pH 6.5, 10 mM 2-mercaptoethanol, 30 C, protein titrated into RNA; NMR: 10 mM NaPi pH 6.5, 1 mM DTT (303 K stated for UP1-R140A:ISS-N1-u25g). The settings on record: protein: recombinant; single strand.
Data set [10] deals with T3, hnRNP A1 RRM1. The data set is described as above. The settings on record: protein: recombinant; single strand.
Another data set concerns the target UP1 r1R2 (UniProt P09651 1-196, F17A;F59A). Briefly: ITC; ITC: 10 mM NaPi pH 6.5, 10 mM 2-mercaptoethanol, 30 C, protein titrated into RNA; NMR: 10 mM NaPi pH 6.5, 1 mM DTT (303 K stated for UP1-R140A:ISS-N1-u25g). Conditions: protein: recombinant; single strand.
Data set [11] concerns the target T4, UP1 R140A (UniProt P09651 1-196, R140A). Briefly: NMR PRE; 1:1 complex; ITC: 10 mM NaPi pH 6.5, 10 mM 2-mercaptoethanol, 30 C, protein titrated into RNA; NMR: 10 mM NaPi pH 6.5, 1 mM DTT (303 K stated for UP1-R140A:ISS-N1-u25g). Conditions: protein: recombinant; label: IA-proxyl spin label on s4U18; single strand.
Data set [12] concerns the target T5, UP1 (UniProt P09651 1-196). Described as above. Conditions: protein: recombinant; label: IA-proxyl spin label on s4U18; single strand.
For data set [13], the target named is T2, hnRNP A1 RRM2. Put plainly: NMR titration; fast exchange; ITC: 10 mM NaPi pH 6.5, 10 mM 2-mercaptoethanol, 30 C, protein titrated into RNA; NMR: 10 mM NaPi pH 6.5, 1 mM DTT (303 K stated for UP1-R140A:ISS-N1-u25g). Conditions: protein: recombinant; single strand.
Data set [14] addresses T3, hnRNP A1 RRM1. The data set is described as above. The settings on record: protein: recombinant; single strand.
Data set [15] has as its target T4, UP1 R140A. Briefly: NMR titration; 1 equivalent RNA; ITC: 10 mM NaPi pH 6.5, 10 mM 2-mercaptoethanol, 30 C, protein titrated into RNA; NMR: 10 mM NaPi pH 6.5, 1 mM DTT (303 K stated for UP1-R140A:ISS-N1-u25g). The settings on record: protein: recombinant; single strand.
Data set [16] concerns the target T5, UP1. Briefly: NMR titration; intermediate exchange, both RRMs; ITC: 10 mM NaPi pH 6.5, 10 mM 2-mercaptoethanol, 30 C, protein titrated into RNA; NMR: 10 mM NaPi pH 6.5, 1 mM DTT (303 K stated for UP1-R140A:ISS-N1-u25g). Conditions: protein: recombinant; single strand.
In data set [17] the target is T4, UP1 R140A. Put plainly: NMR (intermolecular NOEs, structural model); 1:1 complex; RRM2 on 5' motif, RRM1 on 3' motif; ITC: 10 mM NaPi pH 6.5, 10 mM 2-mercaptoethanol, 30 C, protein titrated into RNA; NMR: 10 mM NaPi pH 6.5, 1 mM DTT (303 K stated for UP1-R140A:ISS-N1-u25g). The settings on record: protein: recombinant; single strand.
The target in a further data set is hnRNP A1 RRM2 M186A (UniProt P09651 95-196, M186A). Briefly: ITC; 10 mM sodium phosphate pH 6.5, 10 mM 2-mercaptoethanol, no added salt, 30 C; RNA 5-10 uM in the cell; 1:1 fit. The settings on record: none in PDB 5MPL.
Chain of hnRNP A1 RRM2 M186A (P09651 95-196 M186A): as the sequence (P09651 95-196 R140A) above, with A46R, M92A counted along it
A further data set concerns the target hnRNP A1 RRM2 Y167F (UniProt P09651 95-196, Y167F). Briefly: ITC; ITC: 10 mM NaPi pH 6.5, 10 mM 2-mercaptoethanol, 30 C, protein titrated into RNA; NMR: 10 mM NaPi pH 6.5, 1 mM DTT (303 K stated for UP1-R140A:ISS-N1-u25g). The settings on record: protein: recombinant; single strand.
Data set [18] has as its target T5, UP1. Put plainly: NMR titration; broad lines; ITC: 10 mM NaPi pH 6.5, 10 mM 2-mercaptoethanol, 30 C, protein titrated into RNA; NMR: 10 mM NaPi pH 6.5, 1 mM DTT (303 K stated for UP1-R140A:ISS-N1-u25g). The settings on record: protein: recombinant; single strand.

T4 sequence (P09651 1-196 R140A): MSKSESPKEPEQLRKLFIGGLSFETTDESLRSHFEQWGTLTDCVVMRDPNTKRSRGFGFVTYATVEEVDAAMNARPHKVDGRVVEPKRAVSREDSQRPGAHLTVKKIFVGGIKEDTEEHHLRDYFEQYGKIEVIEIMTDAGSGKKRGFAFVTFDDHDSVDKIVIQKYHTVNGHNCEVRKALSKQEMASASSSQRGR
Chain of hnRNP A1 RRM2 E176Q (P09651 95-196 E176Q): as the sequence (P09651 95-196 R140A) above, with A46R, E82Q counted along it
Chain of UP1 r1R2 (P09651 1-196 F17A/F59A): as the sequence (P09651 1-196 R140A) above, with F17A, F59A, A140R counted along it
T5 sequence (P09651 1-196): as the sequence (P09651 1-196 R140A) above, with A140R counted along it
Chain of hnRNP A1 RRM2 Y167F (P09651 95-196 Y167F): as the sequence (P09651 95-196 R140A) above, with A46R, Y73F counted along it

On to UAGGUC (ssRNA), for which the Kd stood at 685 ± 40 nM with hnRNP A1 RRM2 R140A [1]; 98 ± 8 nM with hnRNP A1 RRM2 [2]; 227 ± 14 nM in the data set with hnRNP A1 RRM2 E176Q; 685 ± 40 nM in the data set with hnRNP A1 RRM2 R140A [3]; 602 ± 34 nM in the data set with hnRNP A1 RRM1 F23A; 625 ± 35 nM with hnRNP A1 RRM1 [4].

As to UUUUAGGU (ssRNA), the binding result with hnRNP A1 RRM1 [5] is reported as “binds”.

Regarding UGAGUU (ssRNA), the Kd with hnRNP A1 UP1 R1r2 [6] was 654 ± 50 nM; in the data set with hnRNP A1 RRM2 R140A [1] it was about 2650 nM; in the data set with hnRNP A1 RRM1 [7], about 3.45 µM; with hnRNP A1 UP1 r1R2 [8], 625 ± 41 nM; in the data set with hnRNP A1 RRM2 R140A [9], about 2240 nM; with hnRNP A1 RRM1 [10] it was about 5.2 µM. Besides, the Kd with hnRNP A1 RRM2 [2] was determined as 546 ± 31 nM; with hnRNP A1 RRM2 E176Q, 324 ± 20 nM; with UP1 r1R2, 625 ± 41 nM.

Take CGUAGGU (ssRNA): the binding result in the data set with hnRNP A1 RRM1 [5] is “binds”.

On to ACCAGCAUUAUGAAAGGUA (XNA, 4-thio-U at position 18) [modified ISS-N1 (spin-labeled)], for which the binding result with UP1 R140A [11] and with UP1 [12] was “binds” throughout.

Turning to UCAGGUC (ssRNA), the Kd in the data set with hnRNP A1 UP1 R1r2 [6] came to 171 ± 12 nM; with hnRNP A1 RRM2 R140A [1], 862 ± 47 nM; with hnRNP A1 UP1 r1R2 [8], 178 ± 11 nM; with hnRNP A1 RRM2 [2], 129 ± 11 nM; with hnRNP A1 RRM2 E176Q, 132 ± 29 nM; with hnRNP A1 RRM2 R140A [3] it was 862 ± 47 nM. The results for the Kd with hnRNP A1 RRM1 [4] and with UP1 r1R2 were 543 ± 33 nM and 178 ± 11 nM, respectively.

With UGAAAGU (ssRNA), the binding result with hnRNP A1 RRM2 [13] and with hnRNP A1 RRM1 [14] was “binds” throughout.

On to GGACCAGCAUUAUGAAAGUGA (ssRNA) [ISS-N1 WT], for which the binding result in the data set with UP1 R140A [15] and in the data set with UP1 [16] was “binds” throughout.

GGACCAGCAUUAUGAAAGGGA (ssRNA) [ISS-N1-u25g]: the binding result with UP1 R140A [17] is given as “binds”.

Take UCAGGG (ssRNA): the binding result in the data set with hnRNP A1 RRM2 [13] is “binds”.

GGACCAGGAUUAUGAAAGUGC (ssRNA) [ISS-N1-c14g]: in the data set with UP1 R140A [15], the binding result was “binds”.

As for UCAGUU (ssRNA), the Kd with hnRNP A1 RRM2 M186A is 1630 nM; with hnRNP A1 UP1 R1r2 [6], 578 ± 40 nM; in the data set with hnRNP A1 RRM2 R140A [1], about 2490 nM; with hnRNP A1 RRM1 [7], over 10 µM; with hnRNP A1 UP1 r1R2 [8], 637 ± 39 nM; with hnRNP A1 RRM2 R140A [9] it was about 2240 nM. Further, the dissociation constant (Kd) is 541 ± 33 nM in the data set with hnRNP A1 RRM2 [2], 237 ± 15 nM with hnRNP A1 RRM2 E176Q, 513 ± 30 nM with hnRNP A1 RRM2 Y167F and 637 ± 39 nM with UP1 r1R2.

With CAGCAU (ssRNA), the binding result in the data set with hnRNP A1 RRM2 [13] and in the data set with hnRNP A1 RRM1 [14] was “binds” each time.

In the case of UAAGUU (ssRNA), the Kd with hnRNP A1 UP1 R1r2 [6] is 658 ± 44 nM; with hnRNP A1 RRM2 R140A [1], about 3300 nM; with hnRNP A1 RRM1 [7], about 4.61 µM; in the data set with hnRNP A1 UP1 r1R2 [8], 685 ± 42 nM; with hnRNP A1 RRM2 R140A [9] it was about 2240 nM; in the data set with hnRNP A1 RRM1 [10], about 5.2 µM. The Kd in the data set with hnRNP A1 RRM2 [2] was determined as 543 ± 31 nM; with hnRNP A1 RRM2 E176Q it was 429 ± 27 nM; in the data set with UP1 r1R2 it was 685 ± 42 nM.

Regarding GGACCAGGAUUAUGAAAGGGC (ssRNA) [ISS-N1-14g25g], the binding result in the data set with UP1 R140A [15] and with UP1 [18] was “binds” in each case.

With UUUUAGGUC (ssRNA), the Kd with hnRNP A1 RRM1 F23A worked out at 130 ± 8 nM; with hnRNP A1 RRM1 [4], 159 ± 9 nM.

Consider UUAGGGA (ssRNA), for which the binding result with hnRNP A1 RRM2 [13] and with hnRNP A1 RRM1 [14] was “binds” in each case.

(Values after PMC5503513, “Tandem hnRNP A1 RNA recognition motifs act in concert to repress the splicing of survival motor neuron exon 7”.)
